The data set deals with the molecule itself. Kind of data set: unfolding kinetics by CD.

B1: Human C6A/C111S SOD (Cu, Zn superoxide dismutase) (enzyme)
chain: not shown
As to B1, the koff is 0.000381 s⁻¹.

By koff is commonly meant a measure of how fast the partners let go of each other.

Source of the values: publication PMC2756654 (Journal of molecular biology, 2008).
